In one assay the target is Hsc70 (human, UniProt P11142 2-646). Kind of assay: co-immunoprecipitation from bronchial brushings of ΔF508 CF subjects (IP gp78, immunoblot Hsc70). The protocol:
(§1) Cells were lysed directly on plates using M-PER (Pierce Biotech. Inc., Rockford, Ill.) protein lysis buffer containing protease inhibitor cocktail (Roche) after three washes with ice cold PBS. CF bronchial brushings were transferred to lysis buffer. For immunoprecipitation, 500 μg/ml (cell culture)/50 μg/ml (bronchial brushings) total protein extracts were incubated with 50 μl of protein A/G agarose beads (Santa Cruz Biotechnology Inc., Santa Cruz, Calif.) for 3 hours at 4° C. After preclearing, 5 μg of respective primary antibody or pre-immune sera (negative control) was added to each tube. After 1 hour, protein A/G agarose beads (50 μL) were added to each tube and tubes were incubated overnight at 4° C. Beads were washed once with lysis buffer (20 mM Tris-HC1 [pH 7.6], 150 mM NaCl, 0.5% Triton X-100 and 10 μM phenylmethylsulfonyl fluoride [PMSF]) followed with two washes with phosphate buffer saline (PBS). The beads were suspended in Laemmli's sample buffer (30 μL) containing β-mercaptoethanol, vortexed for 1 minute, resolved by 4-10% SDS-PAGE and transferred to a 0.4-μm pore size nitrocellulose membrane.
On the technique in general: Immunoblotting shows a protein as a band on a membrane.

For assay [1], the target named is T1, p97/valosin-containing protein (human, UniProt P55072 2-806).
T1 construct: Endogenous protein detected by immunoblot in immunoprecipitates; also called VCP; VCP/p97
Kind of assay: co-immunoprecipitation from bronchial brushings of ΔF508 CF subjects (IP gp78, immunoblot VCP). How it is done: as §1

T1 sequence (P55072 2-806 limits assumed): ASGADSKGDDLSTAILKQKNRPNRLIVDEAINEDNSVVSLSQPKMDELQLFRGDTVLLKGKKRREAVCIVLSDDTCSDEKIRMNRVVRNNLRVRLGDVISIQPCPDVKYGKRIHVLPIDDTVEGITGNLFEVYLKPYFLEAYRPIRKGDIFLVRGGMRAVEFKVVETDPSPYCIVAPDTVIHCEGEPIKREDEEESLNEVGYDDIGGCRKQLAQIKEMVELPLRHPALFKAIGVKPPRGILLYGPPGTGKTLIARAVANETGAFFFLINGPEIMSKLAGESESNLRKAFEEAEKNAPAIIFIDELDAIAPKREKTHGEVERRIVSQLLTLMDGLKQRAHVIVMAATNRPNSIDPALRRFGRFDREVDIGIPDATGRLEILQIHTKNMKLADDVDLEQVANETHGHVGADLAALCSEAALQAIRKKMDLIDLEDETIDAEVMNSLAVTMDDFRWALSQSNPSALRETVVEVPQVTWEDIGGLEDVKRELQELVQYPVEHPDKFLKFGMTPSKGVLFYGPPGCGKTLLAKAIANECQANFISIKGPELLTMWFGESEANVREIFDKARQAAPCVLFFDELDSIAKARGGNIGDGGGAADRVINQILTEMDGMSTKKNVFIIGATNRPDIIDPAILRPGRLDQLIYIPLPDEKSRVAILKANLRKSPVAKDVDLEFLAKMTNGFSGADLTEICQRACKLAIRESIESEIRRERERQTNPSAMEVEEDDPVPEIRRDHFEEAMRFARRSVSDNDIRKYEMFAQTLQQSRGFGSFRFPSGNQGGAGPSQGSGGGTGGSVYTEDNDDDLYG
Hsc70, sequence (P11142 2-646 limits assumed): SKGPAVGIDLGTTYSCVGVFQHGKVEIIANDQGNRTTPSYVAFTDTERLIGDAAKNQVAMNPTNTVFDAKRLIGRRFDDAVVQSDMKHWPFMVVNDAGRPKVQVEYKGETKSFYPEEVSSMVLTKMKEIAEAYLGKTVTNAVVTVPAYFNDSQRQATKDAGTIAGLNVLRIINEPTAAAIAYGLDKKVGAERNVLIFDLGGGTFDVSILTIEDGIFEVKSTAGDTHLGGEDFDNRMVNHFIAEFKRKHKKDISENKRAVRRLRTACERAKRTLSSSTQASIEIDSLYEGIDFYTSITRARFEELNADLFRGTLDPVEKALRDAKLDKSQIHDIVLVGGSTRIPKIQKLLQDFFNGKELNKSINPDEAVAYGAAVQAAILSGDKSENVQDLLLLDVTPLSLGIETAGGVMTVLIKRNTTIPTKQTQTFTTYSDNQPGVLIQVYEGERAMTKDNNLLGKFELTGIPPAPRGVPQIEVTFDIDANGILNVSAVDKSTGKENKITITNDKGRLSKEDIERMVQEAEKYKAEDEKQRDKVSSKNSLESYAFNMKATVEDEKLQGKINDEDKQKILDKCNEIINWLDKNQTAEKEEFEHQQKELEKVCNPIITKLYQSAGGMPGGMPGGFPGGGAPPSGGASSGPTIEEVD

B1: gp78 (enzyme, human, UniProt Q9UKV5 1-643, looked up)
chain: MPLLFLERFPWPSLRTYTGLSGLALLGTIISAYRALSQPEAGPGEPDQLTASLQPEPPAPARPSAGGPRARDVAQYLLSDSLFVWVLVNTACCVLMLVAKLIQCIVFGPLRVSERQHLKDKFWNFIFYKFIFIFGVLNVQTVEEVVMWCLWFAGLVFLHLMVQLCKDRFEYLSFSPTTPMSSHGRVLSLLVAMLLSCCGLAAVCSITGYTHGMHTLAFMAAESLLVTVRTAHVILRYVIHLWDLNHEGTWEGKGTYVYYTDFVMELTLLSLDLMHHIHMLLFGNIWLSMASLVIFMQLRYLFHEVQRRIRRHKNYLRVVGNMEARFAVATPEELAVNNDDCAICWDSMQAARKLPCGHLFHNSCLRSWLEQDTSCPTCRMSLNIADNNRVREEHQGENLDENLVPVAAAEGRPRLNQHNHFFHFDGSRIASWLPSFSVEVMHTTNILGITQASNSQLNAMAHQIQEMFPQVPYHLVLQDLQLTRSVEITTDNILEGRIQVPFPTQRSDSIRPALNSPVERPSSDQEEGETSAQTERVPLDLSPRLEETLDFGEVEVEPSEVEDFEARGSRFSKSADERQRMLVQRKDELLQQARKRFLNKSSEDDAASESFLPSEGASSDPVTLRRRMLAAAAERRLQKQQTS
notes: also called AMFR; AMFR/gp78
For the molecule B1, the binding result (with Hsc70; in assay [1]) was “no binding” each time.
